Laboratory results: patent US20240285816A1, “FORMULATIONS FOR RADIOTHERAPY AND DIAGNOSTIC IMAGING” (priority 2016, published 2024)

How the values were obtained:
[1] = Single dose preclinical toxicology study, intravenous injection; format: in vivo, Sprague Dawley rats
Protocol: A single dose preclinical toxicology study in Sprague Dawley rats was conducted to evaluate the potential toxicity of SARTATE when administered via intravenous injection. Testing was performed on solutions of SARTATE-copper-complex (SCC) and unlabeled SARTATE ligand (SL) at a 1:1 ratio. The study was conducted according to the requirements of OECD GLP Principles.
The test item was administered once to six groups of 10 rats (5/sex) at three doses of 50, 250 and 1000 μg/kg in the vehicle at a volume of 3 mL/kg. Two vehicle control groups of 10 rats (5/sex) were administered the vehicle only (10% ethanol in 0.9% sodium chloride and 0.056% gentisic acid) at the same volumetric dose.
Four groups of rats (one vehicle and three test item treated 50, 250 and 1000 μg/kg) from the main study were sacrificed on Day 2.
The following parameters were evaluated: mortality, daily clinical observations, weekly body weights, weekly food consumption, haematology, biochemistry, urinalysis, organ weights and gross necropsy on day of sacrifice. Extensive histopathology was performed on all animals.

[2] = HPLC analysis of radiochemical purity and stability of the formulation (gamma scintillation detector); format: physicochemical; details: post-manufacture
Source text: The formulations of a radioisotope-ligand complex referred to herein are stable in solution and under physiological conditions for a time. The stability of the formulation relates to the stability of the complex, where the radioisotope may undergo dissociation or the complex may undergo radiolysis. The stability of the complex can be measured by considering the radiochemical purity of the formulation. Radiochemical purity is defined as the amount of the radioisotope complexed by the sarcophagine ligand expressed as percentage of the total amount of the radioisotope present in the formulation. The radioisotope may be present in the formulation as a complex with the sarcophagine ligand, as a free radioisotope or as part of a radiolysis product.
The solution is then filtered through a solid phase extraction cartridge. […] HPLC analysis of the solution obtained can be seen in FIG. 1, showing over 97% radiochemical purity. Further HPLC analysis of the same product solution obtained over multiple time points can be seen in FIG. 2, showing that the radiochemical purity remains >90% for more than 11 hours.
The solution is then filtered through a solid phase extraction cartridge. […] HPLC analysis of the solution obtained can be seen in FIG. 3, showing over 98% radiochemical purity. […]

[3] = format: in vitro ADME; details: human, serum
in vivo = assay: in vivo; parameters: species or system Balb/c nude mice; details: Balb/c nude, mouse
[4] = test item SCC and SL 1:1, 2-day and 15-day experimental periods

Compound: CC(O)[C@H](NC(=O)[C@@H]1CSSC[C@H](NC(=O)[C@@H](Cc2ccccc2)NC(=O)CCCC(=O)NC23CNCCNCC(C)(CNCCNC2)CNCCNC3)C(=O)N[C@@H](Cc2ccc(O)cc2)C(=O)N[C@H](Cc2c[nH]c3ccccc23)C(=O)N[C@@H](CCCCN)C(=O)N[C@@H](C(C)O)C(=O)N1)C(=O)O (stereo partly drawn) [SARTATE, MeCOSar-D-Phe-Cys-Tyr-D-Trp-Lys-Thr-Cys-Thr-OH]
- Human equivalent dose of the NOAEL at 14 days ([1]; both sexes, Sprague Dawley, in vivo, intravenous, from rat NOAEL of 1 mg/kg, read-out: Human Equivalent Dose (HED) of the NOAEL): 0.16 mg/kg
- NOAEL at 14 days ([1]; both sexes, in vivo, iv, single i.v. dose, Sprague Dawley rat, read-out: No Observed Adverse Effect level (NOAEL)): 1 mg/kg
- toxic effects ([1]; intravenously at 50, 250 and 1000 μg/kg): no toxic effects
- safety margin of NOAEL over the maximum human dose ([1]; maximum total dose 0.02 mg per patient): 50 times
- Human Equivalent Dose as total dose ([1]; patient with a weight of 70 kg): 11.2 mg
- haematology, blood biochemistry and urine analysis ([1]; test item SCC and SL 1:1): no test item-related effects
- organ weight and histopathology ([1]; test item SCC and SL 1:1): no evidence of any test item-related effect
- body weight gains versus vehicle control [1, 4]: comparable body weights gains
- clinical abnormalities [1, 4]: no clinical abnormalities related to treatment
- feed intake versus control [1, 4]: similar
- macroscopic abnormalities at necropsy ([1]; test item SCC and SL 1:1, all animals): No macroscopic abnormalities
- mortality ([1]; test item SCC and SL at 1:1 ratio, 50, 250 and 1000 μg/kg i.v. single dose, treatment and recovery periods): No mortalities related to treatment

Compound: CC(O)[C@H](NC(=O)[C@@H]1CSSC[C@H](NC(=O)[C@@H](Cc2ccccc2)NC(=O)CCCC(=O)NC23CNCCNCC(C)(CNCCNC2)CNCCNC3)C(=O)N[C@@H](Cc2ccc(O)cc2)C(=O)N[C@H](Cc2c[nH]c3ccccc23)C(=O)N[C@@H](CCCCN)C(=O)N[C@@H](C(C)O)C(=O)N1)C(=O)O (stereo partly shown) [^64Cu-SARTATE, metal not drawn]
- time for which stability of the formulation is observed [2]: up to 45 hours
- time for which the complex remains intact (metabolic stability) [3]: up to 45 hours
- tissue uptake at 2 h (in vivo; blood): 0.4 ± 0.2 %ID/g
- tissue uptake at 24 h (in vivo; blood): 0.1 ± 0.02 %ID/g
- tissue uptake at 24 h (in vivo; kidney uptake): 10.1 ± 3.5 %ID/g
- tissue uptake at 24 h (in vivo; muscle accumulation): 0.1 ± 0.01 %ID/g
- tissue uptake at 24 h (in vivo; tumour uptake): 31.4 ± 14 %ID/g
- tissue uptake at 2 h (in vivo; uptake by the liver): 3.1 ± 1.3 %ID/g
- tissue uptake at 24 h (in vivo; uptake in lungs): 0.6 ± 0.3 %ID/g
- tissue uptake at 24 h (in vivo; uptake in spleen): 0.8 ± 0.2 %ID/g
